Data taken from publication PMC2734569, “Functional mapping of the fission yeast DNA polymerase δ B-subunit Cdc1 by site-directed and random pentapeptide insertion mutagenesis” (BMC Molecular Biology, 2009).

What was measured:
Assay in all cases: two-hybrid; LexA-Cdc1 bait (pBTM116 or pBTM116BN) with Gal4 activation domain-Cdc27 prey (pGAD2F-Cdc27) in S. cerevisiae CTY10-5d; ONPG liquid culture beta-galactosidase assay, mean of triplicates, as percent of wild-type Cdc1
Conditions in all cases: partners not purified
[1] = biological target: T1, Cdc1-J21 (Schizosaccharomyces pombe, UniProt P87324 1-462, Leu-GlyValProGlnLeu-Asp)
T1 construct: Cdc1, S. pombe, with a pentapeptide inserted after residue 275; source: yeast two-hybrid fusion, in S. cerevisiae CTY10-5d
T1 sequence (looked up): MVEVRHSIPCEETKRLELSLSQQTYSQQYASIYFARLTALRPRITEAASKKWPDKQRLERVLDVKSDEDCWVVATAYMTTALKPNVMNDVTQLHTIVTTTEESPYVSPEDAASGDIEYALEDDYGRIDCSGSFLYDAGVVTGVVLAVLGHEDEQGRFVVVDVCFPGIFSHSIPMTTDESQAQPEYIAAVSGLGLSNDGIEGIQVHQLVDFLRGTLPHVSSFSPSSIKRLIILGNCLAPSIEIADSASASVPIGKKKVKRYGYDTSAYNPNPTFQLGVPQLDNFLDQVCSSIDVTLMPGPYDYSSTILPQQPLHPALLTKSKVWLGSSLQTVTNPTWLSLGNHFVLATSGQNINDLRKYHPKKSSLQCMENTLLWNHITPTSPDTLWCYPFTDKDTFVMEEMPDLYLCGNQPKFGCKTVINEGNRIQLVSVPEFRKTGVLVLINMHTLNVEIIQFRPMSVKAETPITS

[2] = biological target: T2, Cdc1-A9 (Schizosaccharomyces pombe, UniProt P87324 1-462, Pro292Ala | Gly293Ala)
T2 construct: Cdc1, S. pombe, double point mutant (A1 and A2 combined); source: yeast two-hybrid fusion, in S. cerevisiae CTY10-5d
T2 sequence (looked up): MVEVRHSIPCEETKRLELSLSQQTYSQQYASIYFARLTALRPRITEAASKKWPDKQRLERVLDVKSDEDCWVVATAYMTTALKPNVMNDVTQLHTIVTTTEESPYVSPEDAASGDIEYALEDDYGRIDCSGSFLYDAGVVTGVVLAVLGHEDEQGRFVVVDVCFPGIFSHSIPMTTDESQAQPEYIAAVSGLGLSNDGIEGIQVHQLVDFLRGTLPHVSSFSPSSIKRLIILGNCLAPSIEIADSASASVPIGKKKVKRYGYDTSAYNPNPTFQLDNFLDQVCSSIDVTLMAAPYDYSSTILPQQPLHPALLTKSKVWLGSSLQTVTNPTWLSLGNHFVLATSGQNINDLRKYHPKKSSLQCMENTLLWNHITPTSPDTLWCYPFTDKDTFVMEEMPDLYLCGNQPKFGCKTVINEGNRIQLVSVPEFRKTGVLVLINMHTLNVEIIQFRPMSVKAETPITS

[3] = biological target: T3, Cdc1-J9 (Schizosaccharomyces pombe, UniProt P87324 1-462, Met-ArgGlyThrProMet-Thr)
T3 construct: Cdc1, S. pombe, with a pentapeptide inserted after residue 174; source: yeast two-hybrid fusion, in S. cerevisiae CTY10-5d
T3 sequence (looked up): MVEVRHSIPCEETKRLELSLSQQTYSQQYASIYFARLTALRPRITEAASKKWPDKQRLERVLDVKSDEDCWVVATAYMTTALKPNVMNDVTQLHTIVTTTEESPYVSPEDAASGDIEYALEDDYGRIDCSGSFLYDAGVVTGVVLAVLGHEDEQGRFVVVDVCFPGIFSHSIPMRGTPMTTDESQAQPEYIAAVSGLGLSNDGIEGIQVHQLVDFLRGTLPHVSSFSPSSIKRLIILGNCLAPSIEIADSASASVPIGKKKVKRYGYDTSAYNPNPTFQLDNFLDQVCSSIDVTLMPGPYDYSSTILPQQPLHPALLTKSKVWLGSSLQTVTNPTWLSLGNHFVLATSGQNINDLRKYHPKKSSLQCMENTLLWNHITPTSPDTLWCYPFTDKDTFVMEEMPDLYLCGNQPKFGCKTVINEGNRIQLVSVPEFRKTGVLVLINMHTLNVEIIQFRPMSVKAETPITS

[4] = biological target: T4, Cdc1-E5 (Schizosaccharomyces pombe, UniProt P87324 1-462, Val-MetGlyTyrProVal-Met)
T4 construct: Cdc1, S. pombe, with a pentapeptide inserted after residue 86; source: yeast two-hybrid fusion, in S. cerevisiae CTY10-5d
T4 sequence (looked up): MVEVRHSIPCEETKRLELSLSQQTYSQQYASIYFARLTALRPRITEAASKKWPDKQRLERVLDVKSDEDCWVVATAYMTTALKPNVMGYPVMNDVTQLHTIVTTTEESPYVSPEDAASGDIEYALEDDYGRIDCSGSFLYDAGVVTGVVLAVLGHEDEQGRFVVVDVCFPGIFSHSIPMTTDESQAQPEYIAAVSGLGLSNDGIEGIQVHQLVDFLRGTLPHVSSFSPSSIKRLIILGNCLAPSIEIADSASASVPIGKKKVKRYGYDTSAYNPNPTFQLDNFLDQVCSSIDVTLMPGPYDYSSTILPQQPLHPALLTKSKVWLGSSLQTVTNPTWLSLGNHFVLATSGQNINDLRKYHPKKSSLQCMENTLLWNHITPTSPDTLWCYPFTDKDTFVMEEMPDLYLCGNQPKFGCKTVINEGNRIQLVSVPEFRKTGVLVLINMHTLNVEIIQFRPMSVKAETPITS

two-hybrid beta-galactosidase activity, % of wild-type Cdc1 [1]: < 1%
two-hybrid beta-galactosidase activity, % of wild-type Cdc1 [2]: 58%
two-hybrid beta-galactosidase activity, % of wild-type Cdc1 [3]: 102%
two-hybrid beta-galactosidase activity, % of wild-type Cdc1 [4]: 88%
B1: Cdc27 (fission yeast DNA polymerase delta C-subunit) (natural protein, Schizosaccharomyces pombe, UniProt P30261 1-372, looked up)
chain: MEEWRNFLDIKVINESSLVTVDNLSLQLDISSEKAQEYLNMFYQGNDFLYPIYLIHGQPIDDEINLEIDEESQPISNFPVLQYILCDKSSLQEKQSRLKSGYKTVIFALSSAPLSDFDELLPAVYEIREKDVLYKKEDADKYGFIFNENSVPRVLKKAPSTHSPQLSVPSKTSTIDKTDTRSTEKTKGKDIFSNARNQKGNSSRKNKKAPLENHKEKEPLLPKEEKLSEQAKRERDDLKNIMQLEDESVSTTSVHDSEDDNLDSNNFQLEIGTEAKSAAPDEPQEIIKSVSGGKRRGKRKVKKYATTKDEEGFLVTKEEEVWESFSEDENISTGTSNVVRNKPTTVNIATKKKNTAQSKPQQKSIMSFFGKK
notes: DNA polymerase delta C-subunit Cdc27, S. pombe; prey plasmid pGAD2F-Cdc27; also called pGAD2F-Cdc27; source: yeast two-hybrid fusion, in S. cerevisiae CTY10-5d
